Assay results: the supplement of paper PMC7877785
± gives the uncertainty stated by the source.

Assay: self-splicing fitness, log relative to wild type (ln ratio); higher = more splicing; Tetrahymena group I intron in knt gene, E. coli kanamycin selection, DiMSum; sequences stand for … in CUCUCU…GGAGGGAAAAGUUAUCAGGCAUGCACCUGGUAGCUAGUCUUUAAACCAAUAGAUUGCAUCGGUUUAAAAGGCAAGACCGUCAAAUUGCGGGAAAGGGGUCAACAGCCGUUCAGUACCAAGUCUCAGGGGAAACUUUGAGAUGGCCUUGCAAAGGGUAUGGUAAUAAGCUGACGGACAUGGUCCUAACCACGCAGCCAAGUCCUAAGUCAACAGAUCUUCUGUUGAUAUGGAUGCAGUUCACAGACUAAAUGUCGGUCGGGGAAGAUGUAUUCUUCUCAUAAGAUAUAGUCGGACCUCUCCUUAAUGGGAGCUAGCGGAUGAAGUGAUGCAACACUGGAGCCGCUGGGAACUAAUUUGUAUGCGAAAGUAUAUUGAUUAGUUUUGGAGUACUCGUGGUCG
Procedure, shortened: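 Fitness was computed with DiMSum as the error-weighted combination of replicate fold changes, kanamycin versus none, each normalised to wild type. The library randomised all eight intron nucleotides of the P1ex region, with the intron placed in the knt kanamycin-resistance gene on pET-22b(+) in E. coli BL21(DE3). Six replicate transformations were grown overnight at 37°C or 30°C on LB agar with or without 25 μg/mL kanamycin, plus 100 μg/mL carbenicillin, 50 μM IPTG and 0.2% rhamnose. Pooled colonies were amplicon-sequenced on an Illumina HiSeq 2500.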

| Sequence | self-splicing fitness (ln) (30 °C) | self-splicing fitness (ln) (37 °C) |
| --- | --- | --- |
| CCGUAGCAAUAUUACGGCAG | -3.35 ± 0.26 | -2.28 ± 0.26 |
| CCGUAGCAAUAUUACGGGCA | -3.76 ± 0.42 | -2.14 ± 0.23 |
| CCGUAGCAAUAUUACGGGCU | -2.94 ± 0.16 | -2.27 ± 0.21 |
| CCGUAGCAAUAUUACGGUAA | -3.17 ± 0.24 | -3.3 ± 0.26 |
| CCGUAGCAAUAUUACGGUCA | -1.64 ± 0.12 | -2.27 ± 0.19 |
| CCGUAGCAAUAUUACGGUUA | -3.29 ± 0.16 | -1.57 ± 0.12 |
| CCGUAGCAAUAUUACGGUUU | -2.85 ± 0.16 | -3.05 ± 0.27 |
| CCGUAGCAAUAUUACGUACC | -4.4 ± 0.29 | -1.72 ± 0.34 |
| CCGUAGCAAUAUUACGUUAC | -4.02 ± 0.32 | -2.27 ± 0.42 |
| CCGUAGCAAUAUUACGUUAG | -2.22 ± 0.14 | -0.971 ± 0.14 |
| CCGUAGCAAUAUUACGUUCA | -1.34 ± 0.2 | -1.91 ± 0.25 |
| CCUAAGCAAUAUUACGAAUG | -1.63 ± 0.14 | -2.23 ± 0.16 |
| CCUAAGCAAUAUUACGACUC | -3.42 ± 0.38 | -2.04 ± 0.3 |
| CCUAAGCAAUAUUACGAGUG | -0.812 ± 0.045 | -0.282 ± 0.073 |
| CCUAAGCAAUAUUACGAUAU | -3.87 ± 0.32 | -2.6 ± 0.21 |
| CCUAAGCAAUAUUACGCACC | -3.09 ± 0.27 | -3.03 ± 0.28 |
| CCUAAGCAAUAUUACGCCUG | -3.62 ± 0.3 | -2.27 ± 0.3 |
| CCUAAGCAAUAUUACGCGGC | -1.89 ± 0.33 | -2.13 ± 0.42 |
| CCUAAGCAAUAUUACGCUGC | – | -3.02 ± 0.34 |
| CCUAAGCAAUAUUACGCUUU | -3.09 ± 0.23 | -2.17 ± 0.26 |
| CCUAAGCAAUAUUACGGAAA | – | -2.27 ± 0.27 |
| CCUAAGCAAUAUUACGGAUU | -4.68 ± 0.28 | -2.46 ± 0.23 |
| CCUAAGCAAUAUUACGGCGA | -2.84 ± 0.31 | -1.95 ± 0.27 |
| CCUAAGCAAUAUUACGUACA | -3.4 ± 0.5 | -2.9 ± 0.38 |

| Sequence | self-splicing fitness (ln) (30 °C) | self-splicing fitness (ln) (37 °C) |
| --- | --- | --- |
| CCUAAGCAAUAUUACGUAUC | -3.83 ± 0.32 | -2.33 ± 0.26 |
| CCUAAGCAAUAUUACGUCGA | -2.67 ± 0.23 | -2.77 ± 0.25 |
| CCUAAGCAAUAUUACGUGCA | -3.34 ± 0.18 | -1.91 ± 0.17 |
| CCUAAGCAAUAUUACGUGUG | -1.83 ± 0.057 | -1.49 ± 0.075 |
| CCUAAGCAAUAUUACGUUAA | -3.22 ± 0.4 | -2.49 ± 0.22 |
| CCUAAGCAAUAUUACGUUAC | -4.69 ± 0.36 | -3.03 ± 0.32 |
| CCUCAGCAAUAUUACGAACG | -0.86 ± 0.062 | -0.285 ± 0.096 |
| CCUCAGCAAUAUUACGACGC | -3.56 ± 0.4 | -2.43 ± 0.45 |
| CCUCAGCAAUAUUACGAGUU | -2.31 ± 0.1 | -1.11 ± 0.093 |
| CCUCAGCAAUAUUACGAUGA | -2.63 ± 0.21 | -2.8 ± 0.28 |
| CCUCAGCAAUAUUACGAUGU | -3.41 ± 0.15 | -1.3 ± 0.12 |
| CCUCAGCAAUAUUACGAUUG | -1.31 ± 0.068 | -0.558 ± 0.084 |
| CCUCAGCAAUAUUACGAUUU | -4.46 ± 0.22 | -1.39 ± 0.15 |
| CCUCAGCAAUAUUACGCACG | -2.46 ± 0.17 | -1.06 ± 0.18 |
| CCUCAGCAAUAUUACGCCAU | -2.88 ± 0.35 | -1.8 ± 0.18 |
| CCUCAGCAAUAUUACGCCCG | -0.527 ± 0.15 | -0.422 ± 0.18 |
| CCUCAGCAAUAUUACGCCUU | -3.95 ± 0.3 | -2.17 ± 0.22 |
| CCUCAGCAAUAUUACGCUGU | -2.84 ± 0.17 | -2.05 ± 0.25 |
| CCUCAGCAAUAUUACGGAGG | -4.45 ± 0.24 | -2.33 ± 0.21 |
| CCUCAGCAAUAUUACGGCCA | -2.68 ± 0.33 | -2.62 ± 0.33 |
| CCUCAGCAAUAUUACGGCGA | -3.72 ± 0.31 | -2.79 ± 0.22 |
| CCUCAGCAAUAUUACGGUAU | -4.53 ± 0.24 | -2.52 ± 0.15 |
| CCUCAGCAAUAUUACGUCAG | -2.92 ± 0.097 | -1.73 ± 0.1 |
